{"source": "paper PMC5762634", "about": "“Domain swapping and SMYD1 interactions with the PWWP domain of human hepatoma-derived growth factor” (Scientific Reports, 2018)", "target": "the molecule itself", "test": "SEC; Superdex-200; apo PWWP domain at higher initial concentration (proportion of dimer rises with concentration); 20 mM Tris-HCl, 5 mM EDTA, 5 mM beta-ME, pH 7.5", "data": [{"protein": "human HDGF PWWP domain (residues 1-100) (domain or fragment, human hepatoma-derived growth factor (HDGF), N-terminal PWWP domain, the first 100 amino acids; Subcloned into the NdeI and EcoRI sites of pET28a; also called apo PWWP domain; HDGF PWWP_(1-100) domain; source: E. coli BL21-Codon Plus-RIL, purified (Ni2+-NTA, Hitrap Q, Superdex-200)) not shown", "values": [{"measurement": "stoichiometry N", "result": 2}]}]}
